The record followed here is US20230097015A1 (SEOUL NATIONAL UNIVERSITY R AND DB FOUNDATION, published 2023).

The target of one data set is T1, 4CL-MlnB COM^D (Bacillus amyloliquefaciens, UniProt Q42524 1-561).
T1 construct: Unlabelled protein as used in SEC/native PAGE and in the two-step naringenin reaction; also called 4-coumarate-CoA ligase fused to MlnB COM donor domain; not shown: N-terminal His-tag from pET15b vector
T1 sequence: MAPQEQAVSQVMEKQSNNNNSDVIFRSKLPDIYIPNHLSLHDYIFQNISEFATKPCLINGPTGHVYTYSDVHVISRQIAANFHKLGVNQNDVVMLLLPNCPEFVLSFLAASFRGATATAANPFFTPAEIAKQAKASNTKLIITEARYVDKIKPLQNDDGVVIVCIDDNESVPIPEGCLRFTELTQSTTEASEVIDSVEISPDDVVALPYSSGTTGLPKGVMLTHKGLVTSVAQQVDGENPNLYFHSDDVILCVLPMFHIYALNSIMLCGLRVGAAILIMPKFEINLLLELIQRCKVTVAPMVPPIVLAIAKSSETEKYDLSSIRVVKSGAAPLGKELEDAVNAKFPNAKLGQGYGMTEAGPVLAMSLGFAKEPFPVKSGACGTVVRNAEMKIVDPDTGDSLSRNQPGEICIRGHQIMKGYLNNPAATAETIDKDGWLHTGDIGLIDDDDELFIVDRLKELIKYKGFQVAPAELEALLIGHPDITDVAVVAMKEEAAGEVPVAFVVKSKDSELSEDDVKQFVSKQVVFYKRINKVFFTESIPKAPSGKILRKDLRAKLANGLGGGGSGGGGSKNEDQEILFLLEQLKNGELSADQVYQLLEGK
Put plainly: analytical SEC-FPLC of a 1:1 mixture and native PAGE.

Data set [1] concerns the target T2, Cy3-labeled 4CL-MlnB COM^D (Bacillus amyloliquefaciens, UniProt Q42524 1-561, Cy3-NHS ester linked to naturally occurring lysine residues (positions not stated)).
T2 construct: Dye-labelled form used in the three-channel FRET analysis; also called 4CL-MlnB COMD labeled with Cy3; not shown: N-terminal His-tag from pET15b vector
T2 sequence: T1 sequence
Put plainly: Cy3/Cy5 FRET, three channels.

The target of the next data set is T3, MlnC COM^A-AAL.
T3 chain: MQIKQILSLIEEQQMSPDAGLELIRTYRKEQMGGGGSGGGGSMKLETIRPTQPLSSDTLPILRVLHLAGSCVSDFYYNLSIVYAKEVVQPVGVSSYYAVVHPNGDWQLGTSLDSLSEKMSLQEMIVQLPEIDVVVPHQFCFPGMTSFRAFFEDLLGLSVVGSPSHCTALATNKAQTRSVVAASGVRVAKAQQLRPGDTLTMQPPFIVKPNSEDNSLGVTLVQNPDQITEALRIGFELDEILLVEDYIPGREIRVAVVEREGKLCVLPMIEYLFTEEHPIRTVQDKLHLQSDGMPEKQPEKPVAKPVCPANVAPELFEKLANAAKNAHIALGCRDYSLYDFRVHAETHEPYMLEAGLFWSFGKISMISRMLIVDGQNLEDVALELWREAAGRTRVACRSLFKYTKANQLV

B1: MlnC COM^A-CHS (enzyme)
chain: MQIKQILSLIEEQQMSPDAGLELIRTYRKEQMGGGGSGGGGSGGGGSMVTVEEYRKAQRAEGPATVMAIGTATPSNCVDQSTYPDFYFRITNSEHKTDLKEKFKRMCEKSMIKKRYMHLTEEILKENPSMCEYMAPSLDARQDIVVVEVPKLGKEAAQKAIKEWGQPKSKITHLVFCTTSGVDMPGCDYQLTKLLGLRPSVKRLMMYQQGCFAGGTVLRLAKDLAENNKGARVLVVCSEITAVTFRGPNDTHLDSLVGQALFGDGAGAIIIGSDPIPGVERPLFELVSAAQTLLPDSHGAIDGHLREVGLTFHLLKDVPGLISKNIEKSLEEAFKPLGISDWNSLFWIAHPGGPAILDQVEIKLGLKPEKLKATRNVLSNYGNMSSACVLFILDEMRKASAKEGLGTTGEGLEWGVLFGFGPGLTVETVVLHSVAT
notes: Unlabelled protein as used in SEC/native PAGE and in the two-step naringenin reaction; also called chalcone synthase fused to MlnC COM acceptor domain; not shown: C-terminal His-tag from pET21c vector
Take B1: the binding result with 4CL-MlnB COM^D is given as “binds”.

B2: Cy5-labeled MlnC COM^A-CHS (enzyme)
chain: B1 chain
modifications: Cy5-NHS ester linked to naturally occurring lysine residues (positions not stated)
notes: Dye-labelled form used in the three-channel FRET analysis; also called MlnC COMA-CHS labeled with Cy5; not shown: C-terminal His-tag from pET21c vector
With B2, the binding result in data set [1] was “binds”.

B3: MlnB COM^D-CNL (protein)
chain: KNEDQEILFLLEQLKNGELSADQVYQLLEGKGGGSMAQSISLSLPQSTTPSKGVRLKIAALLKTIGTLILLLIALPLNALIVLISLMCRPFTKKPAVATHPQNILVSGGKMTKALQLARSFHAAGHRVILIEGHKYWLSGHRFSNSVSRFYTVPAPQDDPEGYTQALLEIVKREKIDVYVPVCSPVASYYDSLAKSALSEYCEVFHFDADITKMLDDKFAFTDRARSLGLSAPKSFKITDPEQVINFDFSKETRKYILKSISYDSVRRLNLTKLPCDTPEETAAFVKSLPISPEKPWIMQEFIPGKELCTHSTVRDGELRLHCCSNSSAFQINYENVENPQIQEWVQHFVKSLRLTGQISLDFIQAEDGTAYAIECNPRTHSAITMFYNHPGVAEAYLGKTPLAAPLEPLADSKPTYWIYHEIWRLTGIRSGQQLQTWFGRLVRGTDAIYRLDDPIPFLTLHHWQITLLLLQNLQRLKGWVKIDFNIGKLVELGGD
Turning to B3, in the data set with MlnC COM^A-AAL, the “shinorine production in Saccharomyces cerevisiae (HPLC), against free or singly fused CNL and AAL” value is “shinorine production increased by about 1.3 times”.
